The results in this text go back to publication PMC3510010.

What all share (experiment): F-EMSA
The target of data set [1] is T1, GLD-1(135-336) (Caenorhabditis elegans, UniProt Q17339 135-336).
T1 sequence: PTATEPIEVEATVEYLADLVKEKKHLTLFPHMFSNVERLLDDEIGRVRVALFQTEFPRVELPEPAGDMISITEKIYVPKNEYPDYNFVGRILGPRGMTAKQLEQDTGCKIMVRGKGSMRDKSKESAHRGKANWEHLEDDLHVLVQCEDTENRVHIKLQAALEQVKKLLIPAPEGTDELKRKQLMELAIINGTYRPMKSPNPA

Data set [2] concerns the target T2, POS-1(1-206) (Caenorhabditis elegans, UniProt G5EF15 1-206).
For data set [3], the target named is T2, POS-1(1-206). This is another data set of the same source.
Data set [4] has as its target T1, GLD-1(135-336). The source holds these as a separate data set.
For data set [5], the target named is T3, SPN-4-RBD (Caenorhabditis elegans, UniProt G5EF02 50-135).
T3 sequence: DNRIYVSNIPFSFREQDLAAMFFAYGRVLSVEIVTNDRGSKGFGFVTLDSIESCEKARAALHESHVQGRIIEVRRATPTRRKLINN

For data set [6], the target named is POS-1-RBD (80-180) (Caenorhabditis elegans, UniProt G5EF15 80-180).
Chain of POS-1-RBD (80-180) (G5EF15 80-180): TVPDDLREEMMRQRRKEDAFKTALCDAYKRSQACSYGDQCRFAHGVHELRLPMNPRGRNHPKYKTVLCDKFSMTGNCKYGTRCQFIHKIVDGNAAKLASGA
Data set [7] concerns the target T2, POS-1(1-206). The source holds these as a separate data set.
Data set [8] has as its target T1, GLD-1(135-336). This is another data set of the same source.
For data set [9], the target named is T2, POS-1(1-206). This is another data set of the same source.

Where two headings read alike, the source gives them in different places.

T2 sequence (G5EF15 1-206): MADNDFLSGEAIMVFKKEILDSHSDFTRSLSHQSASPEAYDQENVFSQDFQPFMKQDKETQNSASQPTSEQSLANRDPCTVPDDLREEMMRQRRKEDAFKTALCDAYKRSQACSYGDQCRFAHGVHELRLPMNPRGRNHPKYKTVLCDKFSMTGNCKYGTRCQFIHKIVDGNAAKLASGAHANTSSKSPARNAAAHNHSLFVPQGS

As for UUUUUCUCCCUCUAGACUAACCCUGUAAGCU (ssRNA) [∆5′ 3′ PRE], the Kd (usually the equilibrium constant for the complex coming apart) came out at 20 ± 3 nM in data set [1] and 310 ± 20 nM in data set [2].

For UUUUUCUUAUUCUAGACUAAUAUUGUAAGCU (ssRNA) [glp-1 WT], the Kd in data set [3] was 19 ± 2 nM; in [4], 70 ± 10 nM; in data set [6], 30 ± 17 nM. Further, the binding result in data set [5] is reported as “no binding”.

UUUUUCUUAUUCUAGACCAAUAUUGUAAGCU (ssRNA) [∆GBM]: binding in data set [2] was characterised by a dissociation constant (Kd) of 21 ± 1 nM.

Regarding UUUUUCUCCCUCUAGACUAAUAUUGUAAGCU (ssRNA) [∆5′ PRE], the Kd in data set [7] was found to be 55 ± 4 nM; in [8], 33 ± 7 nM.

With UUUUUCUUAUUCUAGACUAACCCUGUAAGCU (ssRNA) [∆3′ PRE], the Kd in [8] turned out to be 25 ± 3 nM; in data set [9], 53 ± 1 nM.
